Assay results from US20210253718A1, “FRIZZLED5 PROTEIN-BINDING AGENTS” (Modmab Therapeutics Corporation, priority 2016, published 2021).

T1: FZD4 CRD (Homo sapiens, UniProt Q9ULV1)
T1 construct: E42-V167; GPI anchor signal (C); expressed in transfected cells; host or cells: CHO cells, lentiviral pLenti-puro
T1 sequence (Q9ULV1 42-167): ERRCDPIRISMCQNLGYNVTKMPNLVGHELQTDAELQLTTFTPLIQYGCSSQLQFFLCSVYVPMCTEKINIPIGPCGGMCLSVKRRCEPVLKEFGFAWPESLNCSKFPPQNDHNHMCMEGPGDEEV

T2: FZD10 CRD (Homo sapiens, UniProt Q9ULW2)
T2 construct: 30-156; GPI anchor signal (C); expressed in transfected cells; host or cells: CHO cells, lentiviral pLenti-puro
T2 sequence (Q9ULW2 30-156): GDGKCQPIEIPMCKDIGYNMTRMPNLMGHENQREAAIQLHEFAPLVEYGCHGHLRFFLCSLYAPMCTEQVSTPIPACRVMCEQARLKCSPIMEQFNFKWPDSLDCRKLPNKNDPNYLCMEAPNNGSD


Assays:
[1] = molecular target: T1, FZD4 CRD; experiment: Flow cytometry of anti-FZD5 Fab binding to CHO cells overexpressing Frizzled CRD
Summary of the method: (§1)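 CHO lines each expressing a different human Frizzled CRD, myc-tagged and GPI-anchored at the surface, stained with 200 nM Fab, then Alexa Fluor 488 F(ab′)2 secondary. Dead cells excluded by viability dye; anti-c-Myc staining served as expression control. Binding read by flow cytometry.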

[2] = system: ASPC-1 cells; experiment: Effect of anti-FZD5 Fabs on proliferation of pancreatic cancer cell lines (percent growth inhibition); type: cell-based, human; conditions: Fab 2 μg/ml
[3] = system: RWP1 cells; experiment: as above; type: cell-based, human; conditions: Fab 2 μg/ml
[4] = system: CHO cells not expressing Frizzled CRD; experiment: Flow cytometry of anti-FZD5 Fab binding to CHO cells not expressing Frizzled CRD (background)
Text: The binding of anti-FZD5 Fabs to cell surface-expressed Frizzled protein was further determined for each member of the Frizzled family via flow cytometry and immunofluorescence analysis of a panel of 10 CHO cell lines, each ectopically over-expressing the extracellular cysteine-rich domain (CRD) of a different Frizzled protein family member.

[5] = system: PATU8988S cells; experiment: Effect of anti-FZD5 Fabs on proliferation of pancreatic cancer cell lines (percent growth inhibition); type: cell-based, human; conditions: Fab 2 μg/ml
[6] = system: PATU8988S cells; experiment: as above; type: cell-based, human; conditions: Fab 10 μg/ml
Description: (§2) The effect of presently disclosed anti-FZD5 Fabs on proliferation of RNF43 loss-of-function mutant pancreatic cancer cell lines HPAFII, PATU8988S and ASPC-1; and on pancreatic cancer cell line RWP1, was tested at […] and 10 μg/ml.

[7] = system: HPAFII cells; experiment: as above; type: cell-based, human; conditions: for percent growth inhibition, HPAFII 2 μg/ml: Fab 2 μg/ml; for percent growth inhibition, HPAFII 10 μg/ml: Fab 10 μg/ml
Description: as §2

[8] = system: RWP1 cells; experiment: as above; type: cell-based, human; conditions: Fab 10 μg/ml
Description: as §2

[9] = system: ASPC-1 cells; experiment: as above; type: cell-based, human; conditions: Fab 10 μg/ml
Description: as §2

[10] = molecular target: T3, FZD2 CRD (Homo sapiens, UniProt Q14332); experiment: Immunofluorescence of anti-FZD5 Fab binding to CHO cells overexpressing Frizzled CRD; set-up: key: −: no binding; +: very weak binder; ++: weak binder; +++: good binder; ++++: very good binder
T3 construct: D35-P161; GPI anchor signal (C); expressed in transfected cells; host or cells: CHO cells, lentiviral pLenti-puro
Summary of the method: (§3)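 First, ten CHO cell lines were made, each lentivirally expressing a different human Frizzled CRD tagged with myc and tethered by GPI. Next, anti-FZD5 Fabs were added to each line. Finally, binding was assessed by immunofluorescence and flow cytometry.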

[11] = molecular target: T1, FZD4 CRD; experiment: as above; set-up: key: −: no binding; +: very weak binder; ++: weak binder; +++: good binder; ++++: very good binder
Summary of the method: as §3

[12] = molecular target: T2, FZD10 CRD; experiment: as above; set-up: key: −: no binding; +: very weak binder; ++: weak binder; +++: good binder; ++++: very good binder
Summary of the method: as §3

[13] = molecular target: T3, FZD2 CRD; experiment: Flow cytometry of anti-FZD5 Fab binding to CHO cells overexpressing Frizzled CRD
Summary of the method: as §1

[14] = molecular target: T4, FZD1 CRD (Homo sapiens, UniProt Q9UP38); experiment: as above
T4 construct: D112-P238; GPI anchor signal (C); expressed in transfected cells; host or cells: CHO cells, lentiviral pLenti-puro
Summary of the method: as §1

| Median fluorescence, Frizzled CRD overexpressed on CHO cells: FZD4 [1] | Immunofluorescence binding, Frizzled CRD overexpressed on CHO cells: FZD2 [10] | Immunofluorescence binding, Frizzled CRD overexpressed on CHO cells: FZD4 [11] | Immunofluorescence binding, Frizzled CRD overexpressed on CHO cells: FZD10 [12] | Median fluorescence, Frizzled CRD overexpressed on CHO cells: FZD2 [13] | Median fluorescence, Frizzled CRD overexpressed on CHO cells: FZD1 [14] | Molecule | percent growth inhibition, ASPC-1 2 μg/ml [2] | percent growth inhibition, RWP1 2 μg/ml [3] | Median fluorescence, Frizzled CRD overexpressed on CHO cells: None [4] | percent growth inhibition, PATU8988s 2 μg/ml [5] | percent growth inhibition, PATU8988s 10 μg/ml [6] | percent growth inhibition, HPAFII 2 μg/ml [7] | percent growth inhibition, HPAFII 10 μg/ml [7] | percent growth inhibition, RWP1 10 μg/ml [8] | percent growth inhibition, ASPC-1 10 μg/ml [9] |
| --- | --- | --- | --- | --- | --- | --- | --- | --- | --- | --- | --- | --- | --- | --- | --- |
| 11.86 | +++ | − | − |  |  | Fab-2899: anti-FZD5 Fab with antibody variable region Fv-2899; CDR SEQ ID NOs: 35, 36, 38, 77, 114, 153 (antibody, V domains shown) VH: EVQLVESGGGLVQPGGSLRLSCAASGFNLYYYYMHWVRQAPGKGLEWVASIYPSSGSTSYADSVKGRFTISADTSKNTAYLQMNSLRAEDTAVYYCARGALDYWGQGTLVTVSS VL: DIQMTQSPSSLSASVGDRVTITCRASQSVSSAVAWYQQKPGKAPKLLIYSASSLYSGVPSRFSGSRSGTDFTLTISSLQPEDFATYYCQQWYSSYGLITFGQGTKVEIK | 37.97% | 37.95% | 4.91 | 4.94% | −3.10% | 36.18% | 55.71% | 47.83% | 33.63% |
| 10.27 | − | − | − |  |  | Fab-2902: anti-FZD5 Fab with antibody variable region Fv-2902; CDR SEQ ID NOs: 35, 36, 41, 80, 117, 153 (antibody, V domains shown) VH: EVQLVESGGGLVQPGGSLRLSCAASGFNISYYYIHWVRQAPGKGLEWVASISSSSSSTSYADSVKGRFTISADTSKNTAYLQMNSLRAEDTAVYYCARGALDYWGQGTLVTVSS VL: DIQMTQSPSSLSASVGDRVTITCRASQSVSSAVAWYQQKPGKAPKLLIYSASSLYSGVPSRFSGSRSGTDFTLTISSLQPEDFATYYCQQWYAFGALITFGQGTKVEIK | 10.84% | 26.56% | 4.66 | −15.75% | −32.61% | 25.42% | 21.81% | 31.22% | 17.39% |
|  | − | − | − | 4.07 | 3.28 | Fab-2907: anti-FZD5 Fab with antibody variable region Fv-2907; CDR SEQ ID NOs: 35, 36, 46, 85, 122, 159 (antibody, V domains shown) VH: EVQLVESGGGLVQPGGSLRLSCAASGFNIYSSYMHWVRQAPGKGLEWVASISSYSGSTYYADSVKGRFTISADTSKNTAYLQMNSLRAEDTAVYYCARSSWGAYIVSYGFDYWGQGTLVTVSS VL: DIQMTQSPSSLSASVGDRVTITCRASQSVSSAVAWYQQKPGKAPKLLIYSASSLYSGVPSRFSGSRSGTDFTLTISSLQPEDFATYYCQQVGYWWGLITFGQGTKVEIK | 10.02% | 8.52% | 3.43 | −12.76% | −42.69% | 15.15% | 14.20% | 28.57% | 23.78% |
| 10.55 | − | − | − |  |  | Fab-2923: anti-FZD5 Fab with antibody variable region Fv-2923; CDR SEQ ID NOs: 35, 36, 62, 100, 138, 162 (antibody, V domains shown) VH: EVQLVESGGGLVQPGGSLRLSCAASGFNLYYYYMHWVRQAPGKGLEWVASIYSSSGSTSYADSVKGRFTISADTSKNTAYLQMNSLRAEDTAVYYCARGAMDYWGQGTLVTVSS VL: DIQMTQSPSSLSASVGDRVTITCRASQSVSSAVAWYQQKPGKAPKLLIYSASSLYSGVPSRFSGSRSGTDFTLTISSLQPEDFATYYCQQWYGYSALITFGQGTKVEIK | 35.27% | 35.90% |  | −18.54% | −19.05% | 15.14% | 18.17% | 40.29% | 34.00% |
| 12.3 | − | − | +++ |  |  | Fab-2906: anti-FZD5 Fab with antibody variable region Fv-2906; CDR SEQ ID NOs: 35, 36, 45, 84, 121, 158 (antibody, V domains shown) VH: EVQLVESGGGLVQPGGSLRLSCAASGFNFSSSSIHWVRQAPGKGLEWVAYISSSYGYTYYADSVKGRFTISADTSKNTAYLQMNSLRAEDTAVYYCARTVRGSKKPYFSGWAMDYWGQGTLVTVSS VL: DIQMTQSPSSLSASVGDRVTITCRASQSVSSAVAWYQQKPGKAPKLLIYSASSLYSGVPSRFSGSRSGTDFTLTISSLQPEDFATYYCQQWSWGFLITFGQGTKVEIK | 20.56% | 1.19% | 3.89 | −17.42% | −30.04% | 15.24% | 14.98% | 5.47% | 35.20% |
|  | − | − | − | 14.59 | 18.43 | Fab-2928: anti-FZD5 Fab with antibody variable region Fv-2928; CDR SEQ ID NOs: 35, 36, 67, 105, 143, 175 (antibody, V domains shown) VH: EVQLVESGGGLVQPGGSLRLSCAASGFNISYSSIHWVRQAPGKGLEWVASIYPSYSSTYYADSVKGRFTISADTSKNTAYLQMNSLRAEDTAVYYCARYYAMDYWGQGTLVTVSS VL: DIQMTQSPSSLSASVGDRVTITCRASQSVSSAVAWYQQKPGKAPKLLIYSASSLYSGVPSRFSGSRSGTDFTLTISSLQPEDFATYYCQQAFYYPITFGQGTKVEIK | 2.33% | −8.19% | 3.68 | −2.11% | −30.22% | −17.90% | −25.51% | 32.47% | 6.27% |
